± gives the standard deviation of the averaged measurements.

A short description of this data set: total protein half-life in vivo (active degradation + dilution); higher = more stable protein.
[1] abbreviates: E. coli NCM3722 delta-clpP delta-lon delta-hslV, growth: N-lim chemostat, doubling time 6 h.
Where [2] appears, read: E. coli NCM3722 delta-clpP, growth: N-lim chemostat, doubling time 6 h.
The mark [3] stands for this setting: E. coli NCM3722 delta-hslV, growth: N-lim chemostat, doubling time 6 h.
Setting [4] is: E. coli NCM3722 delta-lon, growth: N-lim chemostat, doubling time 6 h.
[5] abbreviates: E. coli NCM3722 delta-smpB, growth: N-lim chemostat, doubling time 6 h.
Where [6] appears, read: wild type E. coli NCM3722, growth: C-lim chemostat, doubling time 3 h.
The mark [7] stands for this setting: wild type E. coli NCM3722, growth: C-lim chemostat, doubling time 6 h.
Setting [8] is: wild type E. coli NCM3722, growth: C-lim chemostat, doubling time 12 h.
Setting [9] is: wild type E. coli NCM3722, growth: N-lim chemostat, doubling time 6 h.
Setting [10] is: wild type E. coli NCM3722, growth: N-lim chemostat, doubling time 12 h.
The mark [11] stands for this setting: wild type E. coli NCM3722, growth: P-lim chemostat, doubling time 6 h.
Where [12] appears, read: wild type E. coli NCM3722, growth: P-lim chemostat, doubling time 12 h.

“MALTTISPHDAQELIARGAKLIDIRDADEYLREHIPEADLAPLSVLEQSGLPAKLRHEQIIFHCQAGKRTSNNADKLAAIAAPAEIFLLEDGIDGWKKAGLPVAVNKSQPLPLMRQVQIAAGGLILIGVVLGYTVNSGFFLLSGFVGAGLLFAGISGFCGMARLLDKMPWNQRA”: the “total protein half-life in vivo” value reads like this: under setting [1], 4.3 ± 0.19 h; under setting [2], 4.2 ± 0.14 h; under setting [3], 4.71 ± 0.24 h; under setting [4], 4.74 ± 0.82 h; under setting [5], 5.91 ± 1.4 h; under setting [6], 2.61 ± 0.23 h. Besides, the “total protein half-life in vivo” value reads like this: under setting [7], 6.01 ± 1.2 h; under setting [8], 8.96 ± 2.1 h; under setting [9], 4.58 ± 0.2 h; under setting [10], 8.75 ± 0.24 h; under setting [11], 5.266 ± 0.016 h; under setting [12], 10.3 ± 0.39 h.

As for “MQREDVLGEALKLLELQGIANTTLEMVAERVDYPLDELRRFWPDKEAILYDALRYLSQQIDVWRRQLMLDETQTAEQKLLARYQALSECVKNNRYPGCLFIAACTFYPDPGHPIHQLADQQKSAAYDFTHELLTTLEVDDPAMVAKQMELVLEGCLSRMLVNRSQADVDTAHRLAEDILRFARCRQGGALT [P0ACU7]”, the “total protein half-life in vivo” value under setting [1] was determined as 3.74 ± 0.51 h; the “total protein half-life in vivo” value under setting [2] turned out to be 3.63 ± 0.25 h; the “total protein half-life in vivo” value under setting [3] was 4.07 ± 0.91 h; the “total protein half-life in vivo” value under setting [4] is 3.78 ± 0.57 h; the “total protein half-life in vivo” value under setting [5] was found to be 3.411 ± 0.028 h; the “total protein half-life in vivo” value under setting [6] stood at 2.94 ± 0.46 h. For the same sequence, the “total protein half-life in vivo” value under setting [7] was 4.86 ± 0.17 h; the “total protein half-life in vivo” value under setting [8] amounted to 10.4 ± 2.6 h; the “total protein half-life in vivo” value under setting [9] was 3.44 ± 0.037 h; the “total protein half-life in vivo” value under setting [10] was 5.51 ± 0.28 h; the “total protein half-life in vivo” value under setting [11] turned out to be 5.04 ± 0.78 h; the “total protein half-life in vivo” value under setting [12] was found to be 12 ± 0.99 h.

“MKLAVYSTKQYDKKYLQQVNESFGFELEFFDFLLTEKTAKTANGCEAVCIFVNDDGSRPVLEELKKHGVKYIALRCAGFNNVDLDAAKELGLKVVRVPAYDPEAVAEHAIGMMMTLNRRIHRAYQRTRDANFSLEGLTGFTMYGKTAGVIGTGKIGVAMLRILKGFGMRLLAFDPYPSAAALELGVEYVDLPTLFSESDVISLHCPLTPENYHLLNEAAFEQMKNGVMIVNTSRGALIDSQAAIEALKNQKIGSLGMDVYENERDLFFEDKSNDVIQDDVFRRLSACHNVLFTGHQAFLTAEALTSISQTTLQNLSNLEKGETCPNELV”: the “total protein half-life in vivo” value is, setting by setting: under setting [1], 4.95 ± 0.5 h; under setting [2], 5.65 ± 1.9 h; under setting [3], 4.53 ± 0.051 h; under setting [4], 5.26 ± 0.41 h; under setting [5], 4.57 ± 0.16 h; under setting [6], 3.08 ± 0.3 h. Further, the “total protein half-life in vivo” value turned out to be 5.97 ± 0.49 h under setting [7]; 11.3 ± 0.19 h under setting [8]; 4.64 ± 0.38 h under setting [9]; 7.53 ± 0.61 h under setting [10]; 5.67 ± 0.38 h under setting [11]; 12.3 ± 0.16 h under setting [12].

The record behind these values is the supplement of paper PMC11246515.
